Key:
Assay in all cases: purified protein
Format in all cases: biochemical, Lathyrus oleraceus
purified protein [1] = substrate: N=C(N)NCCCCN; conditions: 0.1 mol/L potassium phosphate pH 7.0, 30 °C, O2 co-substrate
purified protein [2] = substrate: NCC1CCNCC1; conditions: 0.1 mol/L potassium phosphate pH 7.0, 30 °C, O2 co-substrate
purified protein [3] = substrate: NCCC(O)CN; conditions: 0.1 mol/L potassium phosphate pH 7.0, 30 °C, O2 co-substrate
purified protein [4] = substrate: NCCCCCCN; conditions: 0.1 mol/L potassium phosphate pH 7.0, 30 °C, O2 co-substrate, excess substrate inhibition above 500 µmol/L
purified protein [5] = substrate: NCCCCCN; conditions: 0.1 mol/L potassium phosphate pH 7.0, 30 °C, O2 co-substrate, excess substrate inhibition above 500 µmol/L
purified protein [6] = substrate: NCCCCN; conditions: 0.1 mol/L potassium phosphate pH 7.0, 30 °C, O2 co-substrate

B1: Pea seedling amine oxidase (PSAO); diamine oxidase (DAO) (Lathyrus oleraceus) (protein)
chain: VTPLHVQHPLDPLTKEEFLAVQTIVQNKYPISNNRLAFHYIGLDDPEKDHVLRYETHPTLVSIPRKIFVVAIINSQTHEILINLRIRSIVSDNIHNGYGFPILSVDEQSLAIKLPLKYPPFIDSVKKRGLNLSEIVCSSFTMGWFGEEKNVRTVRLDCFMKESTVNIYVRPITGITIVADLDLMKIVEYHDRDIEAVPTAENTEYQVSKQSPPFGPKQHSLTSHQPQGPGFQINGHSVSWANWKFHIGFDVRAGIVISLASIYDLEKHKSRRVLYKGYISELFVPYQDPTEEFYFKTFFDSGEFGFGLSTVSLIPNRDCPPHAQFIDTYVHSANGTPILLKNAICVFEQYGNIMWRHTENGIPNESIEESRTEVNLIVRTIVTVGNYDNVIDWEFKASGSIKPSIALSGILEIKGTNIKHKDEIKEDLHGKLVSANSIGIYHDHFYIYYLDFDIDGTHNSFEKTSLKTVRIKDGSSKRKSYWTTETQTAKTESDAKITIGLAPAELVVVNPNIKTAVGNEVGYRLIPAIPAHPLLTEDDYPQIRGAFTNYNVWVTAYNRTEKWAGGLYVDHSRGDDTLAVWTKQNREIVNKDIVMWHVVGIHHVPAQEDFPIMPLLSTSFELRPTNFFERNPVLKTLSPRDVAWPGCSN
notes: native enzyme purified to homogeneity from 7-day-old etiolated pea seedlings (roots and cotyledons removed); homodimer, 72 kDa subunit; Cu(II) and topaquinone
Km (purified protein [1]): 446 ± 23 µM | kcat (purified protein [1]): 8.4 s⁻¹ | kcat/Km (purified protein [1]): 18800 M⁻¹ s⁻¹ | Km (purified protein [2]): 618 ± 24 µM | kcat (purified protein [2]): 4.2 s⁻¹ | kcat/Km (purified protein [2]): 6800 M⁻¹ s⁻¹ | Km (purified protein [3]): 589 ± 33 µM | kcat (purified protein [3]): 4.9 s⁻¹ | kcat/Km (purified protein [3]): 8320 M⁻¹ s⁻¹ | Km (purified protein [4]): 95 ± 7 µM | kcat (purified protein [4]): 13 s⁻¹ | kcat/Km (purified protein [4]): 137000 M⁻¹ s⁻¹ | Km (purified protein [5]): 148 ± 8 µM | kcat (purified protein [5]): 60.9 s⁻¹ | kcat/Km (purified protein [5]): 411000 M⁻¹ s⁻¹ | Km (purified protein [6]): 289 ± 15 µM | kcat (purified protein [6]): 47.4 s⁻¹ | kcat/Km (purified protein [6]): 164000 M⁻¹ s⁻¹
